From the RNAGym collection of RNA variant scans (doi:10.7554/elife.90254)

B1: LINE1-mini (parent)
chain: GGCAGAGCUCAACACAGCGUGGCAAAGUGGCUGUGGCUAGACUGCC

Variants of: B1
Test: self-cleavage, relative activity (ratio to wild type); higher = more cleavage; in vitro, sequencing; the parent is a self-cleaving ribozyme

Variant	self-cleavage
G33U C46U	0.07
G27U G40A	0.13
A12U U32C	0.07
A12U U32G	0.08
C15G A41G	0.04
G2U A41C	0.02
A11G G21U	0.03
C8U C42G	0.13
U9A G21C	0.06
U34A C45A	0.08
A25G U32A	0.11
G7A A12U	0.15
A6G C10A	0.03
G1U C13U	0.07
G1U C13A	0.05
G17A A26G	0.1
G36C C45U	0.29
G2A A16G	0.26
U38C C42U	0.07
A6U A12G	0.04
G5U G35C	0.06
G36A G40A	0.29
C8U U38A	0.27
G2C U34A	0.07

Variant	self-cleavage
G19A C37A	0.07
A16C C18A	0.06
G7C G22U	0.12
A6C A11U	0.1
G5U C23U	0.12
C23U U43A	0.07
G7C A41C	0.09
C3U G22U	0.82
G2C C46A	0.09
G21U G36U	0.12
C15U C37U	0.11
C37G G44U	0.07
G5U U34A	0.04
G1A U28C	0.39
G22A A39G	0.17
A4U C45U	0.16
U34G U38G	0.03
G1C A26C	0.08
G29C C45A	0.45
U34G C37A	0.06
C18U G36C	0.06
A25C C46U	0.56
A4U G35U	0.13
A6U G19A	0.64

Variant	self-cleavage
A6U G19C	0.45
G5C A11U	0.03
A25C C42A	0.11
G33A U38G	0.03
C3A A16C	0.12
G22U G40C	0.18
A16C A39C	0.02
A4C A6G	0.37
A16U A26C	0.06
G36U G40A	0.13
C23A U38C	0.52
C42U U43G	0.15
C13A G19A	0.15
A14C G22C	0.1
C3A G19A	0.61
G5U C18G	0.06
C3A G5A	0.5
A6C G21U	0.44
G1A G17C	0.18
A25C A26C	1.13
G36A C46U	0.26
A14U G17C	0.22
C3U G27A	0.36
G19C A25G	0.26

Variant	self-cleavage
C18G C31G	0.04
A4G C23G	0.41
G21C U43A	0.07
A25U G29U	2.16
U20A A26G	0.91
A6C G7C	0.08
G36U	0.08
G19A C45U	1.74
G19A C45G	0.38
A6U C8A	0.27
A6U C8G	0.15
C18G U34C	0.03
G27A C45G	0.51
G40A C42G	0.09
U38A G44C	0.09
C8G A16C	0.11
G27C C45A	0.29
A4G A25C	0.78
C18A G33C	0.04
G27A U28A	0.77
A25U A41U	0.6
A12C G27U	0.02
C23A A26G	0.94
G22C A26G	0.87

Variant	self-cleavage
C10U A11U	0.09
G36U C37A	0.05
C15A U34C	0.06
A6G G19A	0.09
C18G U38G	0.02
G1C C31G	0.01
G35C C46G	0.06
U20G G44A	0.25
C13A C46A	0.07
A6C A14C	0.13
C15U G21A	1.23
G29U U43A	0.2
A6G G40C	0.05
A26C G30U	1.45
A25G C46U	0.4
G1U G19A	0.57
G29C A39C	0.06
G17A G22A	0.32
A14G C31A	0.09
G5A A6C	0.2
G7U C31A	0.09
C13A A41G	0.12
G21U C23G	0.9
G22U G27A	1.04

Variant	self-cleavage
U34C A41G	0.07
A11G U38G	0.02
G27A A41C	0.04
C3U G21U	0.41
A11C G29U	0.07
G21U	1.06
A6C C37A	0.34
A4G A24C	0.25
G27U C45A	0.92
C8G G44A	0.04
A6U G30C	1.36
G33C G44U	0.04
A6G A39G	0.03
A25C G30U	1.11
A6G C15G	0.02
A4U G17U	0.16
A26G G35U	0.16
A25U G44U	0.4
C13G A39U	0.05
A6C U28G	0.2
A16G G35A	0.03
C8A G44C	0.23
G22U G33U	0.28
C23U C45G	0.51

Variant	self-cleavage
G21U A24C	0.51
G5U A6U	0.16
U28C G29U	0.77
U28A C31U	0.54
C15U A25U	0.77
A41C C42A	0.05
U9C G44A	0.04
G27A U32A	0.06
G2U U28A	0.07
C3U C10G	0.03
C31A A41U	0.09
A11C G21U	0.1
A11C G21A	0.26
U32A U38C	0.07
C13G G21U	0.31
A6G G17U	0.04
G2C C42A	0.08
G2C C42G	0.03
A24U A26G	0.84
C23G G29U	0.47
A6G G22C	0.07
G5C A16G	0.04
U9C G30A	0.03
C15U G33C	0.09

Variant	self-cleavage
A12C U34G	0.02
A41U	0.67
G7C G40A	0.13
U34G G36C	0.05
G1U G44C	0.14
A6C A25C	0.5
G17C C18A	0.1
C10A U28C	0.07
C3G A25U	0.47
C3A G33A	0.37
C18A U20A	0.29
C18A U20C	0.31
C18G U32G	0.06
G7U A26U	0.34
A41G U43A	0.05
G17C U34C	0.09
A4G C18G	0.16
C31U C37U	0.07
G7U C23G	0.08
G21U G35U	0.22
C18A U34G	0.04
A4U C37G	0.08
G17A U32G	0.06
C10A G35U	0.03

Variant	self-cleavage
U34A A39U	0.06
C3U U38C	0.19
C10U G40A	0.02
A6U A41C	0.07
G36A A41U	0.44
G2A A25U	0.65
C3A U38C	0.26
A12G G17C	0.05
C31G C45G	0.04
C8U U20C	0.09
U28C C46G	1.68
U9C C45G	0.02
C31U G40U	0.04
C13G C37G	0.04
G2C G40U	0.13
C8G A14U	0.08
C8G A14G	0.08
A26U C46A	0.77
C10A U34A	0.05
C31U G44A	0.04
C23U G40U	0.11
C8A G22A	0.18
C10G C23G	0.07
C3G U43C	0.14

Variant	self-cleavage
C42U G44C	0.13
C8G A24U	0.3
C3A G27C	0.24
A16G G21U	0.48
A26C U34C	0.33
G5C G29A	0.05
G2C A26U	0.09
C10U G33U	0.04
G2C A11G	0.02
A12G C42U	0.07
G36U C45U	0.11
C31A C45G	0.06
C3U U20C	0.15
A12G U32G	0.49
A12G U32A	0.15
A14C G33C	0.03
U34A G35A	0.07
A11U G29A	0.14
A4C C10A	0.04
G44U C45A	0.11
A14C A25U	0.09
C18U U28G	0.43
A6C U32C	0.05
C31G C37U	0.05

Variant	self-cleavage
C31U U38A	0.2
G7U A25C	0.06
A26G G27A	0.99
A6G G35A	0.05
G5C A12C	0.04
C10G C37U	0.01
G19U G33C	0.07
G5C A39C	0.07
G5U A12U	0.06
U32A C45U	0.07
U20C G30C	0.98
G7A C37U	0.11
G2A G36U	0.19
G36A G44A	0.43
G36A G44U	0.15
C18U U38C	0.27
C3G G35C	0.13
C18U G27A	0.84
G17A G27A	0.42
C3U G17A	0.1
A14C U28A	0.03
A6U C37U	0.07
C10A G30U	0.09
C10G G30C	0.2

Variant	self-cleavage
C18A	0.85
A12G C15U	0.03
U20G G27C	0.38
G2A A41C	0.08
G7A A14C	0.5
G7A A14U	0.16
A11G C23U	0.02
A24G A26U	1.28
G7C G19A	0.14
A12C U38A	0.01
A12C U38C	0.04
C10U C45U	0.23
C18A A26C	2.92
A14G U20A	0.23
C18G A25G	0.13
A12C C37U	0.02
C10A G19U	0.06
A11U G27U	0.13
G17A G30C	0.83
A6U G40U	0.3
A12G A25U	0.03
G33A C45U	0.1
C37U A39G	0.02
C3U C31U	0.1

Variant	self-cleavage
G35A	0.16
G27C U34A	0.2
G2A A12G	0.14
A11G A41U	0.02
A6U G35A	0.12
U9A C31G	0.07
U9C A26C	0.03
A12C G44C	0.05
C23A A39G	0.08
C15G U28A	0.04
C31A G33U	0.08
G17C C42A	0.05
G1C G35C	0.02
G5A G40A	0.11
C23A G35C	0.14
A6G G27A	0.14
A16G U28G	0.36
U20G C45G	0.25
A26C G33U	0.08
C3G U20G	0.41
C23G U38A	0.32
G7C G33U	0.07
C13G G27A	0.27
G7A A11G	0.02

Variant	self-cleavage
A12G G21A	0.05
A4C A14G	0.1
U32C C46G	0.1
C15A A24C	0.04
C18U C46A	0.46
G17C G21U	1.65
A6U A14U	0.27
A12G C45G	0.06
U9G C31G	0.04
U28C C31A	0.87
A14G A41G	0.16
G21U U28A	0.51
C18U A26C	1.39
U9C A16G	0.03
G2U A24U	0.19
G35A A39G	0.07
A16C U43C	0.08
G2C C3U	0.54
G33A G44A	0.1
A4G G5C	0.07
G7U G22A	0.08
G5A A16G	0.07
